According to FireProtDB (doi:10.1021/bi002609i):

Conditions: Dictyostelium discoideum, reversible: yes
[1] = pH 5.59, 20 °C, Thermal, DSC, MES/NaMES 50 mM
[2] = pH 5.7, 20 °C, Urea, CD, KH2PO4/K2HPO4 50 mM
[3] = pH 5.7, 20 °C, Urea, CD, MES 50 mM
[4] = pH 5.7, 20 °C, Urea, Fluorescence, MES 50 mM
[5] = pH 5.75, 20 °C, Thermal, DSC, MES/NaMES 50 mM
[6] = pH 5.81, 20 °C, Thermal, DSC, MES/NaMES 50 mM
[7] = pH 6.03, 20 °C, Thermal, DSC, MES/NaMES 50 mM
[8] = pH 6.09, 20 °C, Thermal, DSC, MES/NaMES 50 mM
[9] = pH 6.2, 20 °C, Urea, Fluorescence, MES 50 mM, NaCl 400 mM
[10] = pH 6.2, 20 °C, Urea, Fluorescence, MES 50 mM
[11] = pH 6.25, 20 °C, Thermal, DSC, MES/NaMES 50 mM
[12] = pH 6.7, 20 °C, Urea, CD, KH2PO4/K2HPO4 50 mM
[13] = pH 6.7, 20 °C, Urea, Fluorescence, KH2PO4/K2HPO4 50 mM
[14] = pH 7.08, 5 °C, Urea, Fluorescence, KH2PO4/K2HPO4 50 mM
[15] = pH 7.7, 20 °C, Urea, CD, KH2PO4/K2HPO4 50 mM
[16] = pH 7.7, 20 °C, Urea, Fluorescence, KH2PO4/K2HPO4 50 mM
[17] = pH 8.15, 20 °C, Urea, Fluorescence, KH2PO4/K2HPO4 50 mM
[18] = pH 8.7, 20 °C, Urea, CD, Glycine/sodium glycine 50 mM
[19] = pH 8.7, 20 °C, Urea, Fluorescence, Glycine/sodium glycine 50 mM
[20] = pH 9.7, 20 °C, Urea, CD, Glycine/sodium glycine 50 mM
[21] = pH 9.7, 20 °C, Urea, Fluorescence, Glycine/sodium glycine 50 mM

Sequence of Hisactophilin-1 wild type (P13231 whole entry, looked up): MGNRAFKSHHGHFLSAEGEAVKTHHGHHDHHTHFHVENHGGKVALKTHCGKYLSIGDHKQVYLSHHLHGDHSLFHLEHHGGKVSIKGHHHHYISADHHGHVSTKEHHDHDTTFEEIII

## Hisactophilin-1 wild type (from UniProt P13231)
[1]
  heat capacity change of unfolding: 2.4 kcal/mol/K
  unfolding free energy: 1.5 kcal/mol
pH 5.59, Thermal, DSC, MES/NaMES 50 mM
  Tm: 47 °C
[2]
  denaturant m value: 2.24 kcal/mol/M
  denaturant midpoint (higher = more stable): 1.02 M
  unfolding free energy: 2.28 kcal/mol
[3]
  denaturant m value: 2.19 kcal/mol/M
  denaturant midpoint (higher = more stable): 1.05 M
  unfolding free energy: 2.2 kcal/mol
[4]
  denaturant m value: 2.2 kcal/mol/M
  denaturant midpoint (higher = more stable): 0.99 M
  unfolding free energy: 2.18 kcal/mol
[5]
  heat capacity change of unfolding: 2.4 kcal/mol/K
  unfolding free energy: 1.4 kcal/mol
pH 5.75, Thermal, DSC, MES/NaMES 50 mM
  Tm: 48.9 °C
[6]
  heat capacity change of unfolding: 2.4 kcal/mol/K
  unfolding free energy: 2.1 kcal/mol
pH 5.81, Thermal, DSC, MES/NaMES 50 mM
  Tm: 53.6 °C
[7]
  heat capacity change of unfolding: 2.4 kcal/mol/K
  unfolding free energy: 2.8 kcal/mol
pH 6.03, Thermal, DSC, MES/NaMES 50 mM
  Tm: 58.3 °C
[8]
  heat capacity change of unfolding: 2.4 kcal/mol/K
  unfolding free energy: 4.1 kcal/mol
pH 6.09, Thermal, DSC, MES/NaMES 50 mM
  Tm: 58.7 °C
[9]
  denaturant m value: 2.56 kcal/mol/M
  denaturant midpoint (higher = more stable): 1.39 M
  unfolding free energy: 3.56 kcal/mol
[10]
  denaturant m value: 2.39 kcal/mol/M
  denaturant midpoint (higher = more stable): 2.23 M
  unfolding free energy: 5.33 kcal/mol
[11]
  heat capacity change of unfolding: 2.4 kcal/mol/K
  unfolding free energy: 3.8 kcal/mol
pH 6.25, Thermal, DSC, MES/NaMES 50 mM
  Tm: 61.7 °C
[12]
  denaturant m value: 1.63 kcal/mol/M
  denaturant midpoint (higher = more stable): 3.1 M
  unfolding free energy: 5.04 kcal/mol
[13]
  denaturant m value: 1.62 kcal/mol/M
  denaturant midpoint (higher = more stable): 3.08 M
  unfolding free energy: 5.1 kcal/mol
[14]
  denaturant m value: 1.67 kcal/mol/M
  denaturant midpoint (higher = more stable): 2 M
  unfolding free energy: 3.34 kcal/mol
[15]
  denaturant m value: 1.63 kcal/mol/M
  denaturant midpoint (higher = more stable): 4.31 M
  unfolding free energy: 7.11 kcal/mol
[16]
  denaturant m value: 1.59 kcal/mol/M
  denaturant midpoint (higher = more stable): 4.26 M
  unfolding free energy: 6.78 kcal/mol
[17]
  denaturant m value: 1.65 kcal/mol/M
  denaturant midpoint (higher = more stable): 4.61 M
  unfolding free energy: 7.59 kcal/mol
[18]
  denaturant m value: 1.46 kcal/mol/M
  denaturant midpoint (higher = more stable): 5.18 M
  unfolding free energy: 7.55 kcal/mol
[19]
  denaturant m value: 1.49 kcal/mol/M
  denaturant midpoint (higher = more stable): 5.19 M
  unfolding free energy: 7.75 kcal/mol
[20]
  denaturant m value: 1.53 kcal/mol/M
  denaturant midpoint (higher = more stable): 4.58 M
  unfolding free energy: 7.03 kcal/mol
[21]
  denaturant m value: 1.65 kcal/mol/M
  denaturant midpoint (higher = more stable): 4.76 M
  unfolding free energy: 7.85 kcal/mol
